Like-named read-outs stand apart in the source and are kept apart here. Positions of bridges follow the written chain, without caps; N, C: chain ends. Non-standard residues stand in square brackets, D forms with d. Groups on a side chain read outwards from the residue. No end group written: not given here. *: point of attachment. Palmitoyl = CCCCCCCCCCCCCCCC(=O)*; Aib = CC(C)(N)C(=O)O
Legend:
Assay in all cases: cell-based or functional assay
glucagon receptor [1] = biological target: T1, glucagon receptor (UniProt P47871 26-477, limits assumed)
GLP-1 receptor [2] = biological target: T2, GLP-1 receptor (UniProt P43220 24-463, limits assumed)
glucagon receptor [3] = biological target: T1, glucagon receptor; remark: listed apart in the source
GLP-1 receptor [4] = biological target: T2, GLP-1 receptor; remark: listed apart in the source
glucagon receptor [5] = biological target: T1, glucagon receptor; remark: listed apart in the source
GLP-1 receptor [6] = biological target: T2, GLP-1 receptor; remark: listed apart in the source
glucagon receptor [7] = biological target: T1, glucagon receptor; remark: listed apart in the source
glucagon receptor [8] = biological target: T1, glucagon receptor; remark: listed apart in the source
GLP-1 receptor [9] = biological target: T2, GLP-1 receptor; remark: listed apart in the source
glucagon receptor [10] = biological target: T1, glucagon receptor; remark: listed apart in the source
GLP-1 receptor [11] = biological target: T2, GLP-1 receptor; remark: listed apart in the source
glucagon receptor [12] = biological target: T1, glucagon receptor; remark: listed apart in the source
GLP-1 receptor [13] = biological target: T2, GLP-1 receptor; remark: listed apart in the source
GIP receptor [14] = biological target: T3, GIP receptor (UniProt P48546 22-466)
T3 sequence (looked up): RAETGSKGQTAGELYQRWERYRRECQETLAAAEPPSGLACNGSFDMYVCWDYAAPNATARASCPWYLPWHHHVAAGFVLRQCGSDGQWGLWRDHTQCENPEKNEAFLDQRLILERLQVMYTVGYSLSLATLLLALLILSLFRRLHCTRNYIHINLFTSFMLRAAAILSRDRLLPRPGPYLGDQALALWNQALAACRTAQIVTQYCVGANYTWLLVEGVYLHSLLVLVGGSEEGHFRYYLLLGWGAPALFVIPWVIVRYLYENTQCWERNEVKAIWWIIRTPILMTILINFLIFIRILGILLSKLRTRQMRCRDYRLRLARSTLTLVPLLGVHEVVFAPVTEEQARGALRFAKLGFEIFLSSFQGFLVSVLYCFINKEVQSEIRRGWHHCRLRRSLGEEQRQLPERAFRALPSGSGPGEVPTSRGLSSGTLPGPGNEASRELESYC

glucagon receptor [15] = biological target: T1, glucagon receptor; remark: listed apart in the source
GLP-1 receptor [16] = biological target: T2, GLP-1 receptor; remark: listed apart in the source
GIP receptor [17] = biological target: T3, GIP receptor; remark: listed apart in the source
glucagon receptor [18] = biological target: T1, glucagon receptor; remark: listed apart in the source
GLP-1 receptor [19] = biological target: T2, GLP-1 receptor; remark: listed apart in the source
GIP receptor [20] = biological target: T3, GIP receptor; remark: listed apart in the source
GLP-1 receptor [21] = biological target: T2, GLP-1 receptor; remark: listed apart in the source
glucagon receptor [22] = biological target: T1, glucagon receptor; remark: listed apart in the source
GLP-1 receptor [23] = biological target: T2, GLP-1 receptor; remark: listed apart in the source

T1 sequence (P47871 26-477 limits assumed): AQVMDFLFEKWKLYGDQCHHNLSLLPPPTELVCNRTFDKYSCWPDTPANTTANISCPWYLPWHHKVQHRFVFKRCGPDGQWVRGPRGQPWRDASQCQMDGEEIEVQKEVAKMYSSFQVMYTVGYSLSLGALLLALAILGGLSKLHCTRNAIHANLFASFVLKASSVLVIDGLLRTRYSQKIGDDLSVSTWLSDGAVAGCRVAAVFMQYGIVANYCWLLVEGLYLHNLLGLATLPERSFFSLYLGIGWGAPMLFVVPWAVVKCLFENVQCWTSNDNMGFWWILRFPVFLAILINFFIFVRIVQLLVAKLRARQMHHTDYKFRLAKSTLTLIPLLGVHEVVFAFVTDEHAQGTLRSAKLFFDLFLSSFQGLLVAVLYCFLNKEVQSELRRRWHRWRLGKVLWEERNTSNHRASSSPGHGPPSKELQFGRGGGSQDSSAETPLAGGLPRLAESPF

B1: Glucagon (1-29a) Aib2 Lys10-Trp-C16 Aib16 Aib20 Cys24 (peptide)
peptide: H[Aib]QGTFTSDK([Trp-Palmitoyl])SKYLD[Aib]RRA[Aib]DFVCWLMNT-NH2
modifications: N-terminus assumed
SMILES: CCCCCCCCCCCCCCCC(=O)N[C@@H](Cc1c[nH]c2ccccc12)C(=O)NCCCC[C@H](NC(=O)[C@H](CC(=O)O)NC(=O)[C@H](CO)NC(=O)[C@@H](NC(=O)[C@H](Cc1ccccc1)NC(=O)[C@@H](NC(=O)CNC(=O)[C@H](CCC(N)=O)NC(=O)C(C)(C)NC(=O)[C@@H](N)Cc1c[nH]cn1)[C@@H](C)O)[C@@H](C)O)C(=O)N[C@@H](CO)C(=O)N[C@@H](CCCCN)C(=O)N[C@@H](Cc1ccc(O)cc1)C(=O)N[C@@H](CC(C)C)C(=O)N[C@@H](CC(=O)O)C(=O)NC(C)(C)C(=O)N[C@@H](CCCNC(=N)N)C(=O)N[C@@H](CCCNC(=N)N)C(=O)N[C@@H](C)C(=O)NC(C)(C)C(=O)N[C@@H](CC(=O)O)C(=O)N[C@@H](Cc1ccccc1)C(=O)N[C@H](C(=O)N[C@@H](CS)C(=O)N[C@@H](Cc1c[nH]c2ccccc12)C(=O)N[C@@H](CC(C)C)C(=O)N[C@@H](CCSC)C(=O)N[C@@H](CC(N)=O)C(=O)N[C@H](C(N)=O)[C@@H](C)O)C(C)C
B1 was tested, and the EC50 (glucagon receptor [1]) was 2060 pM and the EC50 (GLP-1 receptor [2]) was 1150 pM.

HSQGTFTSDYSRYLDSRRAQDFVQWLMNK [Glucagon R12 K29] was tested, and the “cAMP induction EC50” value (glucagon receptor [3]) was 810 pM and the “cAMP induction EC50” value (GLP-1 receptor [4]) was 410 pM.

For HSEGTFTSDYSKYLDERRAQDFVQWLMNT-NH2 [E3, E16 Gluc-NH2], the “Percent Potency Relative to Native Ligand” value (glucagon receptor [5]) was 1.6% and the “Percent Potency Relative to Native Ligand” value (GLP-1 receptor [6]) was 28.8%.

With HSEGTFTSDYSKYLDEQAAKEFIC(PEG 20 kDa)WLMNT-NH2 [Peptide V] the glucagon agonism (glucagon receptor [7]) was over 10 fold.

B2: peptide of SEQ ID NO: 555 (peptide)
peptide: YSQGTFTSDYSKYLDEQAAKEFVNWLMNGGPSSGAPPPS-NH2
modifications: lactam 16-20; N-terminus assumed
SMILES: CSCC[C@H](NC(=O)[C@H](CC(C)C)NC(=O)[C@H](Cc1c[nH]c2ccccc12)NC(=O)[C@H](CC(N)=O)NC(=O)[C@@H](NC(=O)[C@H](Cc1ccccc1)NC(=O)[C@H](CCC(=O)O)NC(=O)[C@@H]1CCCCNC(=O)CC[C@H](NC(=O)[C@H](CC(=O)O)NC(=O)[C@H](CC(C)C)NC(=O)[C@H](Cc2ccc(O)cc2)NC(=O)[C@H](CCCCN)NC(=O)[C@H](CO)NC(=O)[C@H](Cc2ccc(O)cc2)NC(=O)[C@H](CC(=O)O)NC(=O)[C@H](CO)NC(=O)[C@@H](NC(=O)[C@H](Cc2ccccc2)NC(=O)[C@@H](NC(=O)CNC(=O)[C@H](CCC(N)=O)NC(=O)[C@H](CO)NC(=O)[C@@H](N)Cc2ccc(O)cc2)[C@@H](C)O)[C@@H](C)O)C(=O)N[C@@H](CCC(N)=O)C(=O)N[C@@H](C)C(=O)N[C@@H](C)C(=O)N1)C(C)C)C(=O)N[C@@H](CC(N)=O)C(=O)NCC(=O)NCC(=O)N1CCC[C@H]1C(=O)N[C@@H](CO)C(=O)N[C@@H](CO)C(=O)NCC(=O)N[C@@H](C)C(=O)N1CCC[C@H]1C(=O)N1CCC[C@H]1C(=O)N1CCC[C@H]1C(=O)N[C@@H](CO)C(N)=O
B2 gave an EC50 (glucagon receptor [8]) of 44 pM and an EC50 (GLP-1 receptor [9]) of 62 pM.

B3: Glucagon (1-29a) Aib2 Aib16 (peptide)
peptide: H[Aib]QGTFTSDYSKYLD[Aib]RRAQDFVQWLMNT-NH2
modifications: N-terminus assumed
SMILES: CSCC[C@H](NC(=O)[C@H](CC(C)C)NC(=O)[C@H](Cc1c[nH]c2ccccc12)NC(=O)[C@H](CCC(N)=O)NC(=O)[C@@H](NC(=O)[C@H](Cc1ccccc1)NC(=O)[C@H](CC(=O)O)NC(=O)[C@H](CCC(N)=O)NC(=O)[C@H](C)NC(=O)[C@H](CCCNC(=N)N)NC(=O)[C@H](CCCNC(=N)N)NC(=O)C(C)(C)NC(=O)[C@H](CC(=O)O)NC(=O)[C@H](CC(C)C)NC(=O)[C@H](Cc1ccc(O)cc1)NC(=O)[C@H](CCCCN)NC(=O)[C@H](CO)NC(=O)[C@H](Cc1ccc(O)cc1)NC(=O)[C@H](CC(=O)O)NC(=O)[C@H](CO)NC(=O)[C@@H](NC(=O)[C@H](Cc1ccccc1)NC(=O)[C@@H](NC(=O)CNC(=O)[C@H](CCC(N)=O)NC(=O)C(C)(C)NC(=O)[C@@H](N)Cc1c[nH]cn1)[C@@H](C)O)[C@@H](C)O)C(C)C)C(=O)N[C@@H](CC(N)=O)C(=O)N[C@H](C(N)=O)[C@@H](C)O
B3 was tested, and the EC50 (glucagon receptor [10]) was 90 pM and the EC50 (GLP-1 receptor [11]) was 100 pM.

In the case of H[Aib]QGTFTSDK([Trp-Palmitoyl])SKYLD[Aib]RRA[Aib]DFVC(PEG 40 kDa)WLMNT-NH2 [Glucagon (1-29a) Aib2 Lys10-Trp-C16 Aib16 Aib20 Cys24-40 kD], the EC50 (glucagon receptor [1]) is reported as 2370 pM and the EC50 (GLP-1 receptor [2]) is reported as 600 pM.

HXQGTFTSDYSKYLDEQAAKEFIAWLMNGGPSSGAPPPSK (acylated Lys at 40) [mt-364] was tested, and the “% Relative activity” value (glucagon receptor [12]) was 350%, the “% Relative activity” value (GLP-1 receptor [13]) was 355% and the “% Relative activity” value (GIP receptor [14]) was 15.7%. For the same binder, the “% Relative activity” value (glucagon receptor [15]) was 350%, the “% Relative activity” value (GLP-1 receptor [16]) was 355% and the “% Relative activity” value (GIP receptor [17]) was 15.7%. The “% Relative activity” value (glucagon receptor [18]) was 350%, the EC50 (glucagon receptor [18]) was 18.3 pM and the “% Relative activity” value (GLP-1 receptor [19]) was 355%. For the same binder, the EC50 (GLP-1 receptor [19]) was 7 pM and the “% Relative activity” value (GIP receptor [20]) was 15.7%.

With HSQGTFTSDYSKYLEERRAQDFVQWLMNT-NH2 [E15, E16 Gluc-NH2] the “Percent Potency Relative to Native Ligand” value (GLP-1 receptor [21]) was 9.2%.

B4: AIB2, AIB16, K10(C16), K30 Glucagon Amide (peptide)
peptide: H[Aib]QGTFTSDK(Palmitoyl)SKYLD[Aib]RRAQDFVCWLMNTK-NH2
modifications: N-terminus assumed
SMILES: CCCCCCCCCCCCCCCC(=O)NCCCC[C@H](NC(=O)[C@H](CC(=O)O)NC(=O)[C@H](CO)NC(=O)[C@@H](NC(=O)[C@H](Cc1ccccc1)NC(=O)[C@@H](NC(=O)CNC(=O)[C@H](CCC(N)=O)NC(=O)C(C)(C)NC(=O)[C@@H](N)Cc1c[nH]cn1)[C@@H](C)O)[C@@H](C)O)C(=O)N[C@@H](CO)C(=O)N[C@@H](CCCCN)C(=O)N[C@@H](Cc1ccc(O)cc1)C(=O)N[C@@H](CC(C)C)C(=O)N[C@@H](CC(=O)O)C(=O)NC(C)(C)C(=O)N[C@@H](CCCNC(=N)N)C(=O)N[C@@H](CCCNC(=N)N)C(=O)N[C@@H](C)C(=O)N[C@@H](CCC(N)=O)C(=O)N[C@@H](CC(=O)O)C(=O)N[C@@H](Cc1ccccc1)C(=O)N[C@H](C(=O)N[C@@H](CS)C(=O)N[C@@H](Cc1c[nH]c2ccccc12)C(=O)N[C@@H](CC(C)C)C(=O)N[C@@H](CCSC)C(=O)N[C@@H](CC(N)=O)C(=O)N[C@H](C(=O)N[C@@H](CCCCN)C(N)=O)[C@@H](C)O)C(C)C
In the case of B4, the EC50 (glucagon receptor [22]) is reported as 761 pM, the “EC50 (20% human plasma)” value (glucagon receptor [22]) is reported as 313 pM and the “EC50 (20% human plasma)” value (GLP-1 receptor [23]) is reported as 17 pM.

With Y[Aib]QGTFISDYSIYLDKQAA[Aib]EFVNWLLAGGPSSGAPPPSK(Palmitoyl)-NH2 [mt-358] the “% Relative activity” value (glucagon receptor [12]) was 710%, the “% Relative activity” value (GLP-1 receptor [13]) was 11.9% and the “% Relative activity” value (GIP receptor [14]) was 314%.
